Reference: US20260144872A1
Values joined by “and” are separate entries in the source; they are usually repeats but may differ in a detail not shown here. Equal entries are not always repeated.

Target: CD16 (activating FcγRIIIa, CD16a) on NK cells (UniProt P08637)
Assay: cell-based or functional assay

Sequence of UniProt P08637 (P08637 17-254 limits assumed): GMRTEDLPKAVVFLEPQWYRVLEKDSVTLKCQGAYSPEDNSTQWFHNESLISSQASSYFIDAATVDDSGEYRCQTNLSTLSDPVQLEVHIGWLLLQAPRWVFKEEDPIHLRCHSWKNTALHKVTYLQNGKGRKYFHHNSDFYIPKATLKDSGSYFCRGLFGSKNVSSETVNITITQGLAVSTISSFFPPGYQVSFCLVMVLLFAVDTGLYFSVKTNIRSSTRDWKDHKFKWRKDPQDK

## a disintegrin and metalloproteinase domain-containing protein 17 (ADAM17) (from UniProt P78536 215-824)
  CD16 positive % on NK cells after PMA (1 ug/mL, 1 hour), ADAM17 edited cells: 72.4% and 92%

## a disintegrin and metalloproteinase domain-containing protein 17 (ADAM17) (from UniProt P78536 215-824) (enzyme)
  CD16 positive % on NK cells after PMA (1 ug/mL, 1 hour), EP controls (ADAM17 intact): 0.62 to 6%
